The values below come from patent EP4582447A1 (Quaerite Biopharm Research (Beijing) Co., Ltd., dated 2025).

Like-named read-outs stand apart in the source and are kept apart here.

The target of test [1] is T1, Human VEGFA165 (human, UniProt P15692-4 27-191). In words: cell-based or functional assay.
Test [2] concerns the target T1, Human VEGFA165. The experiment in a line: SPR Biacore 8K, VEGFA165 amine-coupled on CM5, nanobody as analyte, 1:1 model.
Test [3] has as its target T1, Human VEGFA165. In words: competition ELISA on coated VEGFA, competitor VEGFR2-ECD-Fc 1 nM. In general terms: In an ELISA, binding on a coated surface is turned into a signal by an enzyme label.
Test [4] has as its target T1, Human VEGFA165. In words: phage ELISA, VEGFA coated 0.5 µg/mL, anti-M13(HRP).
Test [5] deals with T1, Human VEGFA165. In words: ELISA, VEGFA coated 0.3 µg/mL, anti-His detection.
The target in test [6] is T1, Human VEGFA165. The experiment in a line: SPR, VEGFA165 on CM5. Background: In SPR one partner is held on a chip, and binding of the other changes the refractive index at the surface.
The target in test [7] is T1, Human VEGFA165. In words: competition ELISA on coated VEGFA, competitor VEGFR2-ECD-Fc 1 nM. This is another data set of the same source.
The target in test [8] is T1, Human VEGFA165. In words: SPR Biacore 8K, VEGFA165 amine-coupled on CM5, nanobody as analyte, 1:1 model. This is another data set of the same source.
The target of test [9] is 3% milk powder (negative control). The experiment in a line: phage ELISA, 3% milk powder coated (negative control), anti-M13(HRP).
Test [10] addresses T1, Human VEGFA165. In words: competition ELISA on coated VEGFA, competitor VEGFR2-ECD-Fc 2 nM.

T1 sequence (P15692 other isoform, or with tags, fused parts or gaps limits assumed): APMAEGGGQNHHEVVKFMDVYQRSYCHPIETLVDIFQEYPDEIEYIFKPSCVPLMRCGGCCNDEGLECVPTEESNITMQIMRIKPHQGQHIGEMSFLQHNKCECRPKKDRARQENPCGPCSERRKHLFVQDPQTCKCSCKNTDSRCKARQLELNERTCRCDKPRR

“negative control antibody (nanobody binding to an irrelevant antigen) (VHH)” showed a Maximum inhibition rate (%) of HUVEC proliferation with Human VEGFA165 [1] of 0%.

B1: V1-2m (VHH)
VHH: EVQLVESGGGLVQPGGSLRLSCAASGRTFSSYTMGWFRQAPGKEREFVVAISKGGYKYDSVSLEARFTISRDNSKNTVYLQMNSLRPEDTAVYYCAATRAYGSSRLRLADTYEYWGQGTLVTVSS
notes: Humanized V1
As a reminder, the Kd is the concentration at which binding is half-saturated. The term koff denotes the rate constant with which the complex falls apart. By kon is commonly meant the second-order rate constant of association. In the test with Human VEGFA165 [2], B1 showed a Kd of 0.243 nM, a koff of 8.24e-05 s⁻¹ and a kon of 339000 M⁻¹ s⁻¹.

B2: V43-1H-87 (VHH)
VHH: EVQLVESGGGLVQPGGSLRLSCAASGRTFSSYTMGWFRQAPGKEREFVVAISKGGYKYDSVSLEARFTISRDNSKNTLYLQMNSLRPEDTAVYYCAATRAYGSSRLRLANTYEYWGQGTLVTVSS
notes: Humanized V43
What is called IC50 is the concentration at which inhibition is half-maximal. A higher IC50 goes with weaker potency. Take B2: in the test with Human VEGFA165 [3], the half-inhibitory concentration (IC50) stood at 5.27 nM and the “Maximum inhibition rate (%)” value is 95.4%.

B3: V36 (VHH)
VHH: QLQLVESGGGSVQPGGSLRLSCEVSGRTFASYTMGWFRQAPGKEREFVVAISKGGYKYDSVSLEARFTISKDNTKNTVYLQMNSLKPEDTAVYYCAGTRAYGSSRLRLADTYEYWGQGTQVTVSS
notes: Purified with C-terminal GGGGS-6×His
Usually EC50 stands for the concentration at which the effect is half-maximal. The molecule B3 had an OD450 in the test with Human VEGFA165 [4] of 2.77 OD450. Further, a half-maximal effect with Human VEGFA165 [5] (EC50) was put at 0.36 nM. Also, the “fold difference of KD from the positive control BI-VEGF ab” value (“fold difference of KD” below) in the test with Human VEGFA165 [6] was less than 3 fold. In the test with Human VEGFA165 [7], the IC50 was found to be 4.72 nM and the “Maximum inhibition rate (%)” value was determined as 96.3%. Besides, in the test with Human VEGFA165 [8], the Kd turned out to be 0.285 nM, the koff came to 0.00012 s⁻¹ and the kon turned out to be 419000 M⁻¹ s⁻¹. The OD450 in [9] came to 0.0623 OD450.

B4: V29 (VHH)
VHH: QLQLVESGGGSVQPGGSLRLSCEVSGRTFSSYTMGWFRQAPGKEREFVVAISKGGYKYDSVSLEARFTISKDNTKNTVYLQMNSLKPEDTAVYYCAGTRAYGSSRLRLANTYEYWGQGTQVTVSS
notes: as for B3
In the case of B4, the OD450 in the test with Human VEGFA165 [4] was 2.69 OD450. Moreover, a half-maximal response with Human VEGFA165 [5] (EC50) required 0.77 nM. Moreover, the “fold difference of KD” value with Human VEGFA165 [6] is less than 3 fold. For the same molecule, in the test with Human VEGFA165 [7], the IC50 is 2.98 nM and the “Maximum inhibition rate (%)” value came out at 95.3%. For the same molecule, in the test with Human VEGFA165 [8], binding was characterised by a dissociation constant (Kd) of 0.436 nM, the koff came out at 0.000127 s⁻¹ and the kon stood at 291000 M⁻¹ s⁻¹. The OD450 in [9] amounted to 0.0553 OD450.

B5: V41 (VHH)
VHH: QLQLVESGGGSVQPGGSLRLSCEVSGRTFSSYTMGWFRQAPGKEREFVVAISKGGYKYDSVSLEARFTISKDNTKNTVYLQMNSLKPEDTAVYYCAGTRAYGSSRLRLAKTYEYWGQGTQVTVSS
notes: as for B3
On to B5, for which the OD450 in the test with Human VEGFA165 [4] stood at 2.77 OD450. Moreover, the EC50 with Human VEGFA165 [5] was 0.57 nM. In addition, the “fold difference of KD” value with Human VEGFA165 [6] is less than 3 fold. In the test with Human VEGFA165 [8], this molecule yielded a Kd of 0.482 nM, a koff of 0.00016 s⁻¹ and a kon of 331000 M⁻¹ s⁻¹. For the same molecule, the OD450 in test [9] is 0.0359 OD450.

B6: V33 (VHH)
VHH: QLQLVESGGGSVQPGGSLRLSCEVSGRTFSSYTMGWFRQAPGKEREFVVAISKGGYKYDSVSLEARFTISKDNTKNTVYLQMNSLKPEDTAVYYCAATRAYGSSRLRLAKTYEYWGQGTQVTVSS
notes: as for B3
B6 had an OD450 in the test with Human VEGFA165 [4] of 2.53 OD450. Also, the EC50 in the test with Human VEGFA165 [5] was 0.64 nM. Besides, in the test with Human VEGFA165 [6], the “fold difference of KD” value was less than 3 fold. Moreover, in the test with Human VEGFA165 [7], the IC50 is 3.91 nM and the “Maximum inhibition rate (%)” value came to 96.3%. In the test with Human VEGFA165 [8], this molecule registered a Kd of 0.522 nM, a koff of 0.000168 s⁻¹ and a kon of 323000 M⁻¹ s⁻¹. In test [9], this molecule returned an OD450 of 0.0489 OD450.

B7: V43-4m (VHH)
VHH: EVQLVESGGGLVQPGGSLRLSCAASGRTFTSYTMGWFRQAPGKEREFVVAISKGGYKYDSVSLEARFTISRDNAKNTVYLQMNSLRPEDTAVYYCAGTRAYGSSRLRLANTYEYWGQGTLVTVSS
notes: Humanized V43
For B7, in the test with Human VEGFA165 [10], the IC50 turned out to be 35.5 nM and the “Maximum inhibition rate (%)” value came out at 89.3%.

B8: V13-2m (VHH)
VHH: EVQLVESGGGLVQPGGSLRLSCAASGRTFTSYTMGWFRQAPGKEREFVVAISKGGYKYDAVSLEARFTISRDNSKNTVYLQMNSLRPEDTAVYYCAGTRAYGSSRLRLADTYEYWGQGTLVTVSS
notes: Humanized V13 (CDR graft on humanized V1 frameworks)
On to B8, for which, in the test with Human VEGFA165 [10], the IC50 is 40.1 nM and the “Maximum inhibition rate (%)” value came out at 88.9%.

B9: V30-2H-78 (VHH)
VHH: EVQLVESGGGLVQPGGSLRLSCAASGRTFSSYTMGWFRQAPGKEREFVVAISKGGYKYDAVSLEARFTISRDNSKNTVYLQMNSLRAEDTAVYYCAATRAYGSSRLRLAKTYEYWGQGTLVTVSS
notes: Humanized V30
B9: in the test with Human VEGFA165 [3], the IC50 was determined as 4.97 nM and the “Maximum inhibition rate (%)” value is 95.5%.

B10: V1-4m (VHH)
VHH: EVQLVESGGGLVQPGGSLRLSCAASGRTFSSYTMGWFRQAPGKEREFVVAISKGGYKYDSVSLEARFTISRDNAKNTVYLQMNSLRPEDTAVYYCASTRAYGSSRLRLADTYEYWGQGTLVTVSS
notes: Humanized V1
For B10, in the test with Human VEGFA165 [10], the half-inhibitory concentration (IC50) came to 26.1 nM and the “Maximum inhibition rate (%)” value is 93%.

B11: V1-com-74-78-97 (VHH)
VHH: EVQLVESGGGLVQPGGSLRLSCAASGRTFSSYTMGWFRQAPGKEREFVVAISKGGYKYDSVSLEARFTISRDNAKNTVYLQMNSLRAEDTAVYYCASTRAYGSSRLRLADTYEYWGQGTLVTVSS
notes: Humanized V1
Turning to B11, in the test with Human VEGFA165 [10], the IC50 was 20 nM and the “Maximum inhibition rate (%)” value was 94.4%.

B12: V1-com-78 (VHH)
VHH: EVQLVESGGGLVQPGGSLRLSCAASGRTFSSYTMGWFRQAPGKEREFVVAISKGGYKYDSVSLEARFTISRDNSKNTVYLQMNSLRAEDTAVYYCAATRAYGSSRLRLADTYEYWGQGTLVTVSS
notes: Humanized V1
Consider B12, for which, in the test with Human VEGFA165 [10], the IC50 is 28.5 nM and the “Maximum inhibition rate (%)” value came out at 93.7%. In the test with Human VEGFA165 [2], this molecule displayed a Kd of 0.257 nM, a koff of 8.91e-05 s⁻¹ and a kon of 347000 M⁻¹ s⁻¹.

B13: V13-4m (VHH)
VHH: EVQLVESGGGLVQPGGSLRLSCAASGRTFTSYTMGWFRQAPGKEREFVVAISKGGYKYDAVSLEARFTISRDNAKNTVYLQMNSLRPEDTAVYYCAGTRAYGSSRLRLADTYEYWGQGTLVTVSS
notes: Humanized V13
For B13, in the test with Human VEGFA165 [10], the IC50 was 26.8 nM and the “Maximum inhibition rate (%)” value was 89.2%.

B14: V30-2H-2m (VHH)
VHH: EVQLVESGGGLVQPGGSLRLSCAASGRTFSSYTMGWFRQAPGKEREFVVAISKGGYKYDAVSLEARFTISRDNSKNTVYLQMNSLRPEDTAVYYCAATRAYGSSRLRLAKTYEYWGQGTLVTVSS
notes: Humanized V30
In the case of B14, in the test with Human VEGFA165 [3], the IC50 is 5.64 nM and the “Maximum inhibition rate (%)” value was 94.7%.

B15: V43-3H-78 (VHH)
VHH: EVQLVESGGGLVQPGGSLRLSCAASGRTFTSYTMGWFRQAPGKEREFVVAISKGGYKYDSVSLEARFTISRDNSKNTVYLQMNSLRAEDTAVYYCAGTRAYGSSRLRLANTYEYWGQGTLVTVSS
notes: Humanized V43
In the case of B15, in the test with Human VEGFA165 [3], the IC50 came out at 8.63 nM and the “Maximum inhibition rate (%)” value came to 93.4%.

B16: V1-SA3 (VHH)
VHH: EVQLVESGGGLVQPGGSLRLSCAASGRTFSSYTMGWFRQAPGKEREFVVAISKGGYKYDSVSLEARFTISRDNAKNTVYLQMNSLRAEDTAVYYCAATRAYGSSRLRLADTYEYWGQGTLVTVSS
notes: Humanized V1
In the case of B16, in the test with Human VEGFA165 [10], the IC50 was 26.7 nM and the “Maximum inhibition rate (%)” value was 93.5%.

B17: V30-2H-87 (VHH)
VHH: EVQLVESGGGLVQPGGSLRLSCAASGRTFSSYTMGWFRQAPGKEREFVVAISKGGYKYDAVSLEARFTISRDNSKNTLYLQMNSLRPEDTAVYYCAATRAYGSSRLRLAKTYEYWGQGTLVTVSS
notes: Humanized V30
As to B17, in the test with Human VEGFA165 [3], the IC50 amounted to 5.81 nM and the “Maximum inhibition rate (%)” value was 94.2%.

B18: V43-1H-78 (VHH)
VHH: EVQLVESGGGLVQPGGSLRLSCAASGRTFSSYTMGWFRQAPGKEREFVVAISKGGYKYDSVSLEARFTISRDNSKNTVYLQMNSLRAEDTAVYYCAATRAYGSSRLRLANTYEYWGQGTLVTVSS
notes: Humanized V43
As for B18, in the test with Human VEGFA165 [3], the IC50 came out at 5.62 nM and the “Maximum inhibition rate (%)” value was found to be 95.5%.

B19: V43-1H-2m (VHH)
VHH: EVQLVESGGGLVQPGGSLRLSCAASGRTFSSYTMGWFRQAPGKEREFVVAISKGGYKYDSVSLEARFTISRDNSKNTVYLQMNSLRPEDTAVYYCAATRAYGSSRLRLANTYEYWGQGTLVTVSS
notes: Humanized V43
B19: in the test with Human VEGFA165 [3], the IC50 amounted to 5.99 nM and the “Maximum inhibition rate (%)” value came out at 94.5%.

B20: V43-3H-87 (VHH)
VHH: EVQLVESGGGLVQPGGSLRLSCAASGRTFTSYTMGWFRQAPGKEREFVVAISKGGYKYDSVSLEARFTISRDNSKNTLYLQMNSLRPEDTAVYYCAGTRAYGSSRLRLANTYEYWGQGTLVTVSS
notes: Humanized V43
As to B20, in the test with Human VEGFA165 [3], the IC50 came to 7.15 nM and the “Maximum inhibition rate (%)” value turned out to be 91.6%.

B21: V1-com-87 (VHH)
VHH: EVQLVESGGGLVQPGGSLRLSCAASGRTFSSYTMGWFRQAPGKEREFVVAISKGGYKYDSVSLEARFTISRDNSKNTLYLQMNSLRPEDTAVYYCAATRAYGSSRLRLADTYEYWGQGTLVTVSS
notes: Humanized V1
As for B21, in the test with Human VEGFA165 [2], binding was characterised by a dissociation constant (Kd) of 0.252 nM, the koff worked out at 9.08e-05 s⁻¹ and the kon amounted to 360000 M⁻¹ s⁻¹.
